# Where no end group is shown, it is not given here.
# Biological target: stretch-activated channels (cationic SACs) of ventricular myocytes from rabbits with aortic … (rabbit)
# Test: cell-based or functional assay
binder,measurement,value
"GCLEFWWKCNPNDDKCCRPKLKCSKLFKLCNFSSG-NH2 (disulfide (positions not given here); not fully specified (bridges); also: 3 disulfides (ICK motif), pairing not given here) [GsMTx-4 purified from Grammostola spatulata venom]",myocyte cell volume reduction relative to that produced by 1.5 T saline,~40%

# Source: US7125847 (RESEARCH FOUNDATION OF STATE UNIVERSITY OF NEW YORK AT …, dated 2006)
